Measurements published in US20090169520.

Legend:
[1] = target: T1, Amylin (islet amyloid polypeptide, IAPP), P10997
T1 chain: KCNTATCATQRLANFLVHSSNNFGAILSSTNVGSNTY

[2] = target: synthetic Aβ (1-40) peptide (Biosource), P05067
Chain of synthetic Aβ (1-40) peptide (Biosource), P05067 (P05067 whole entry, looked up, tested part not stated): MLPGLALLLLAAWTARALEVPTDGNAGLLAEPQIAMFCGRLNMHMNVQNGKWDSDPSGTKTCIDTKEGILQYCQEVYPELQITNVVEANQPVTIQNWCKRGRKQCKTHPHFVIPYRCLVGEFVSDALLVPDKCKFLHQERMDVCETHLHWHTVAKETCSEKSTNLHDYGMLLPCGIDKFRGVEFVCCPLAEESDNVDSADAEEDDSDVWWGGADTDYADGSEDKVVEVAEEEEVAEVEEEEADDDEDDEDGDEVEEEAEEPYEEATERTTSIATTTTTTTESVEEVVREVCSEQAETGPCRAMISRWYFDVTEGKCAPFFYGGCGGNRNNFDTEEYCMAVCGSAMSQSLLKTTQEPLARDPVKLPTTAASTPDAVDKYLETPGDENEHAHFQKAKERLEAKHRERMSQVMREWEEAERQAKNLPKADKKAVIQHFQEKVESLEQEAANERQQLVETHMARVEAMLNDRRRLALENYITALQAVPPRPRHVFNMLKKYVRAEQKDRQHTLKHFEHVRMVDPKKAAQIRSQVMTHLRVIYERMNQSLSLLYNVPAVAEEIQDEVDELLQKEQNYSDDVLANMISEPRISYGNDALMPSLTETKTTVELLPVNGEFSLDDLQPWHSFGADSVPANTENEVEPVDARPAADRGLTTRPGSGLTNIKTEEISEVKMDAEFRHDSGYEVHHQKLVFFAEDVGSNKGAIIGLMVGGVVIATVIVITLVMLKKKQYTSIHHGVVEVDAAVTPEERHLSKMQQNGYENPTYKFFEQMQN

| Protein | lag time of amylin amyloid fibril formation with 0.24 µM BChE (30 minutes without) [1] | time for which amylin fibril formation was completely attenuated (20 µM amylin, 0.24 µM BChE, ThT fluorescence) [1] | Aβ fibril formation in a mix of 33 µM Aβ with 0.36 µM AChE-S and increasing doses of hBChE (ThT fluorescence) [2] | Lag (fold change) of Aβ fibrillation against no addition [2] [fold] | Lag (h) before onset of Aβ fibrillation [2] [h] | Rate (FU/h) of Aβ fibrillation, ThT fluorescence, BChE at 27.4 mg/L [2] [FU/h] | Rate (fold change) of Aβ fibrillation against no addition [2] [fold] | concentration needed for a complete attenuation of Aβ fibrillation (for 400 minutes) [2] | time for which Aβ fibril formation was totally prevented (0.4 µM BChE, 33 µM Aβ, ThT fluorescence) [2] | Lag (h) before onset of Aβ fibrillation (no addition: 4.0 ± 0.3) [2] [h] | Rate (FU/h) of Aβ fibrillation, ThT fluorescence, 33 µM Aβ, AChE-S at 25.8 mg/L (no addition: 3.4 ± 0.4) [2] [FU/h] |
| --- | --- | --- | --- | --- | --- | --- | --- | --- | --- | --- | --- |
| purified human BChE (butyrylcholinesterase, from human serum; Sigma) (protein) EDDIIIATKNGKVRGMNLTVFGGTVTAFLGIPYAQPPLGRLRFKKPQSLTKWSDIWNATKYANSCCQNIDQSFPGFHGSEMWNPNTDLSEDCLYLNVWIPAPKPKNATVLIWIYGGGFQTGTSSLHVYDGKFLARVERVIVVSMNYRVGALGFLALPGNPEAPGNMGLFDQQLALQWVQKNIAAFGGNPKSVTLFGESAGAASVSLHLLSPGSHSLFTRAILQSGSFNAPWAVTSLYEARNRTLNLAKLTGCSRENETEIIKCLRNKDPQEILLNEAFVVPYGTPLSVNFGPTVDGDFLTDMPDILLELGQFKKTQILVGVNKDEGTAFLVYGAPGFSKDNNSIITRKEFQEGLKIFFPGVSEFGKESILFHYTDWVDDQRPENYREALGDVVGDYNFICPALEFTKKFSEWGNNAFFYYFEHRSSKLPWPEWMGVMHGYEIEFVFGLPLERRDNYTKAEEILSRSIVKRWANFAKYGNPNETQNNSTSWPVFKSTEQKYLTLNTESTRIMTKLRAQQCRFWTSFFPKVLEMTGNIDEAEWEWKAGFHRWNNYMMDWKNQFNDYTSKKESCVGL | increased the lag time of amyloid fibril formation from 30 minutes to 110 minutes | BChE completely attenuated the formation of amylin fibrils for 100 minutes | a dose-dependent interference with the fibril formation process was observed | 1.4 | 5.6 | 1.1 | 0.3 | as compared with 30 µg/ml of the complete BChE enzyme | addition of 0.4 µM BChE to 33 µM Aβ totally prevented fibril formation for over 600 minutes | – | – |
| recombinant human AChE-S (synaptic acetylcholinesterase) (protein) EGREDAELLVTVRGGRLRGIRLKTPGGPVSAFLGIPFAEPPMGPRRFLPPEPKQPWSGVVDATTFQSVCYQYVDTLYPGFEGTEMWNPNRELSEDCLYLNVWTPYPRPTSPTPVLVWIYGGGFYSGASSLDVYDGRFLVQAERTVLVSMNYRVGAFGFLALPGSREAPGNVGLLDQRLALQWVQENVAAFGGDPTSVTLFGESAGAASVGMHLLSPPSRGLFHRAVLQSGAPNGPWATVGMGEARRRATQLAHLVGCPPGGTGGNDTELVACLRTRPAQVLVNHEWHVLPQESVFRFSFVPVVDGDFLSDTPEALINAGDFHGLQVLVGVVKDEGSYFLVYGAPGFSKDNESLISRAEFLAGVRVGVPQVSDLAAEAVVLHYTDWLHPEDPARLREALSDVVGDHNVVCPVAQLAGRLAAQGARVYAYVFEHRASTLSWPLWMGVPHGYEIEFIFGIPLDPSRNYTAEEKIFAQRLMRYWANFARTGDPNEPRDPKAPQWPPYTAGAQQYVSLDLRPLEVRRGLRAQACAFWNRFLPKLLSATDTLDEAERQWKAEFHRWSSYMVHWKNQFDHYSKQDRCSDL | – | – | – | 0.6 | – | – | 2.1 | – | – | 2.5 | 7 |
